Source: patent publication US6905854B2, “Mutated penicillin expandase and process for preparing 7-ADCA using the same” (Synmax Biochemical Co., Ltd., priority 2002, dated 2005)
Substitutions are numbered along the chain they refer to. Numbers in names are those of the source.

B1: YS125: mutated DAOCS with substitution N304L as disclosed in Chin H. S. et al (protein, UniProt P18548 1-311, looked up, variant N304L)
Deacetoxycephalosporin C …: MDTTVPTFSLAELQQGLHQDEFRRCLRDKGLFYLTDCGLTDTELKSAKDLVIDFFEHGSEAEKRAVTSPVPTMRRGFTGLESESTAQITNTGSYSDYSMCYSMGTADNLFPSGDFERIWTQYFDRQYTASRAVAREVLRATGTEPDGGVEAFLDCEPLLRFRYFPQVPEHRSAEEQPLRMAPHYDLSMVTLIQQTPCANGFVSLQAEVGGAFTDLPYRPDAVLVFCGAIATLVTGGQVKAPRHHVAAPRRDQIAGSSRTSSVFFLRPNADFTFSVPLARECGFDVSLDGETATFQDWIGGNYVLIRRTSKA
B2: YS67: mutated penicillin expandase (DAOCS) with substitutions V275I and I305M (protein, UniProt P18548 1-311, looked up, variant V275I I305M)
Deacetoxycephalosporin C …: B1 Deacetoxycephalosporin C … with V275I, L304N, I305M
B3: YS53: mutated penicillin expandase (DAOCS) with substitution C281Y (protein, UniProt P18548 1-311, looked up, variant C281Y)
Deacetoxycephalosporin C …: B1 Deacetoxycephalosporin C … with C281Y, L304N
B4: YS103: mutated penicillin expandase (DAOCS) with substitution M188V (protein, UniProt P18548 1-311, looked up, variant M188V)
Deacetoxycephalosporin C …: B1 Deacetoxycephalosporin C … with M188V, L304N
B5: YS87: mutated penicillin expandase (DAOCS) with substitution T91A (protein, UniProt P18548 1-311, looked up, variant T91A)
Deacetoxycephalosporin C …: B1 Deacetoxycephalosporin C … with T91A, L304N
B6: EC12: mutated penicillin expandase (DAOCS) with substitution L277Q (protein, UniProt P18548 1-311, looked up, variant L277Q)
Deacetoxycephalosporin C …: B1 Deacetoxycephalosporin C … with L277Q, L304N
B7: YH2: mutated penicillin expandase (DAOCS) with substitution H244R (protein, UniProt P18548 1-311, looked up, variant H244R)
Deacetoxycephalosporin C …: B1 Deacetoxycephalosporin C … with H244R, L304N
B8: YS5: mutated penicillin expandase (DAOCS) with substitution V275I (protein, UniProt P18548 1-311, looked up, variant V275I)
Deacetoxycephalosporin C …: B1 Deacetoxycephalosporin C … with V275I, L304N
B9: YS69: mutated penicillin expandase (DAOCS) with substitution M188I (protein, UniProt P18548 1-311, looked up, variant M188I)
Deacetoxycephalosporin C …: B1 Deacetoxycephalosporin C … with M188I, L304N
B10: YS59: mutated penicillin expandase (DAOCS) with substitution G79E (protein, UniProt P18548 1-311, looked up, variant G79E)
Deacetoxycephalosporin C …: B1 Deacetoxycephalosporin C … with G79E, L304N
B11: YS71: mutated penicillin expandase (DAOCS) with substitution A106T (protein, UniProt P18548 1-311, looked up, variant A106T)
Deacetoxycephalosporin C …: B1 Deacetoxycephalosporin C … with A106T, L304N
B12: YS72: mutated penicillin expandase (DAOCS) with substitution C155Y (protein, UniProt P18548 1-311, looked up, variant C155Y)
Deacetoxycephalosporin C …: B1 Deacetoxycephalosporin C … with C155Y, L304N
B13: SC59: DNA-shuffled combined DAOCS mutant with C155Y, Y184H, V275I and C281Y (protein, UniProt P18548 1-311, looked up, variant C155Y Y184H V275I C281Y)
Deacetoxycephalosporin C …: B1 Deacetoxycephalosporin C … with C155Y, Y184H, V275I, C281Y, L304N
B14: YS123: mutated penicillin expandase (DAOCS) with substitution H244Q (protein, UniProt P18548 1-311, looked up, variant H244Q)
Deacetoxycephalosporin C …: B1 Deacetoxycephalosporin C … with H244Q, L304N
B15: YS110: mutated penicillin expandase (DAOCS) with substitution Y184H (protein, UniProt P18548 1-311, looked up, variant Y184H)
Deacetoxycephalosporin C …: B1 Deacetoxycephalosporin C … with Y184H, L304N
B16: YS115: mutated penicillin expandase (DAOCS) with substitution M73T (protein, UniProt P18548 1-311, looked up, variant M73T)
Deacetoxycephalosporin C …: B1 Deacetoxycephalosporin C … with M73T, L304N
B17: YS88: combined DAOCS mutant, mutated sites 79E, 275I, 281Y (protein, UniProt P18548 1-311, looked up, variant G79E V275I C281Y)
Deacetoxycephalosporin C …: B1 Deacetoxycephalosporin C … with G79E, V275I, C281Y, L304N
B18: YS81: combined DAOCS mutant, mutated sites 275I, 281Y, 305M (protein, UniProt P18548 1-311, looked up, variant V275I C281Y I305M)
Deacetoxycephalosporin C …: B1 Deacetoxycephalosporin C … with V275I, C281Y, L304N, I305M
B19: YS74: combined DAOCS mutant, mutated sites 275I, 304K, 305L (protein, UniProt P18548 1-311, looked up, variant V275I N304K I305L)
Deacetoxycephalosporin C …: B1 Deacetoxycephalosporin C … with V275I, L304K, I305L
B20: SC39: combined DAOCS mutant, mutated sites 73T, 281Y (protein, UniProt P18548 1-311, looked up, variant M73T C281Y)
Deacetoxycephalosporin C …: B1 Deacetoxycephalosporin C … with M73T, C281Y, L304N
B21: YS100: combined DAOCS mutant, mutated sites 79E, 275I, 305L (protein, UniProt P18548 1-311, looked up, variant G79E V275I I305L)
Deacetoxycephalosporin C …: B1 Deacetoxycephalosporin C … with G79E, V275I, L304N, I305L

Test: Kinetic assay of purified DAOCS with penicillin N as main substrate
Format: biochemical
Settings: for penicillin N; 0.5 μg purified DAOCS, 30° C., 10 minutes
Method: (§1) The cell extract (2 ml) of a candidate mutant was applied onto a HiTrap Q column (5 ml) pre-equilibrated with buffer B (50 mM Mops/pH 7.5, 1 mM DTT, 0.4 mM pefabloc SC, and 0.5 μg/ml leupeptin). Then, the column was washed with 20 ml of buffer B, followed by a further wash with 25 ml of buffer B containing 120 mM NaCl, and DAOCS was eluted off with 20 ml of buffer B containing 150 mM NaCl. The DAOCS containing fractions were pooled (10 ml), concentrated by UF 15 device (NMWL 5K; Millipore), and loaded onto a Hiload Superdex 75 (16/60) column pre-equilibrated with buffer B at a flow rate of 1 ml/min.
(§2) The standard penicillin G assay was followed for kinetic assay, but 20 μg of purified DAOCS was used and the concentration of α-ketoglutarate was reduced to 1 mM. Kinetic parameters were obtained from triplicate experiments by Hanes-Woolf Plot. For assays using penicillin N as a main substrate, a total volume of 240 μl reaction containing 50 mM Hepes/pH 7.5, 0.4 mM ascorbate, 0.1 mM FeSO4, 0.1 mM α-ketoglutarate, 0.1 mM penicillin N and 0.5 μg of purified DAOCS was incubated at 30° C. for 10 minutes, then the same volume of 10 mM EDTA/pH 7.5 was added, and the mixture was subjected to ultrafiltration with UF 0.5 device (NMWL 5000, Millipore). The filtrate was analyzed by HPLC using 25 mM potassium phosphate/pH 6.5 as a mobile phase. The retention time of DAOC and penicillin N was 12 minutes and 13.5 minutes, respectively The results of kinetic parameters are shown in Table 1, wherein the definition and calculation of the parameters are described in Lehninger et al. Principles of Biochemistry, 2nd Ed. Worth Publishers, New York (1993) which is incorporated herein for reference.
With B1 the kcat was 0.415 ± 0.063 S^−1. B2 showed a kcat of 0.316 ± 0.032 S^−1. Molecule B3 has a kcat of 0.273 ± 0.014 S^−1. For B4, the kcat was 0.084 ± 0.002 S^−1. B5 gave a kcat of 0.247 ± 0.006 S^−1. B6 gave a kcat of 0.297 ± 0.020 S^−1. Molecule B7 has a kcat of 0.236 ± 0.005 S^−1. For B8, the kcat was 0.252 ± 0.020 S^−1. B9 showed a kcat of 0.277 ± 0.004 S^−1. For B10, the kcat was 0.178 ± 0.019 S^−1. B11 showed a kcat of 0.277 ± 0.014 S^−1. B12 gave a kcat of 0.235 ± 0.008 S^−1. With B13 the kcat was 0.048 ± 0.001 S^−1. For B14, the kcat was 0.260 ± 0.006 S^−1. Work on B15 yielded a kcat of 0.048 ± 0.005 S^−1. B16 showed a kcat of 0.239 ± 0.009 S^−1.

Same assay, conditions: for penicillin N; 0.5 μg purified DAOCS, 30° C., 10 minutes; triplicate, Hanes-Woolf Plot
In the case of B1, the Km is reported as 18 ± 4 µM. In the case of B2, the Km is reported as 13 ± 5 µM. Work on B3 yielded a Km of 6 ± 1 µM. B4 showed a Km of 47 ± 0.5 µM. For B5, the Km was 9 ± 0.5 µM. With B6 the Km was 11 ± 1.5 µM. B7 showed a Km of 8 ± 1 µM. In the case of B8, the Km is reported as 12 ± 3 µM. Molecule B9 has a Km of 11 ± 1 µM. For B10, the Km was 9 ± 3 µM. Molecule B11 has a Km of 13 ± 2 µM. Work on B12 yielded a Km of 16 ± 0.5 µM. In the case of B13, the Km is reported as 92 ± 0.5 µM. B14 showed a Km of 9 ± 1.5 µM. B15 gave a Km of 295 ± 30 µM. B16 showed a Km of 6 ± 3 µM.

Test: Kinetic assay of purified DAOCS with penicillin G (standard penicillin G assay, HPLC of cephalosporin G)
Format: biochemical
Settings: for penicillin G; 20 μg purified DAOCS, 1 mM α-ketoglutarate, 30° C.
Method: (§3) For penicillin G, 20 μl of cell extracts was added into a standard 200 μl assay reaction containing 50 mM Mops/pH 7.5, 4 mM ascorbate, 1 mM FeSO4, 4 mM α-ketoglutarate and 7 mM penicillin G, and incubated at 30° C. for 20 minutes. The reaction was stopped by addition of 200 μl of ethanol, followed by a centrifugation at 15,000×g for 5 minutes. The concentration of cephalosporin G in supernatant was analyzed by HPLC with 40 μl injection. The mobile phase was 25 mM potassium phosphate/pH 6.5 with 19% acetonitrile at a flow rate of 1 ml/min. The retention time for cephalosporin G was 8.5 minutes and 12.5 minutes for penicillin G with detection at 215 nm, and the product at 8.5 minutes in DAOCS reaction was confirmed by ESI-LC/MS (positive): [M+H]^+=333. […] The different combinations of the mutated amino acids mentioned above were also constructed by site-directed mutagenesis.
as §1, §2
In the case of B1, the kcat is reported as 0.0402 ± 0.0006 S^−1. Work on B2 yielded a kcat of 0.1458 ± 0.0038 S^−1. Work on B3 yielded a kcat of 0.0744 ± 0.0033 S^−1. For B4, the kcat was 0.0456 ± 0.0016 S^−1. With B5 the kcat was 0.0522 ± 0.0004 S^−1. With B6 the kcat was 0.1036 ± 0.0012 S^−1. With B7 the kcat was 0.0672 ± 0.0008 S^−1. B8 gave a kcat of 0.0502 ± 0.0012 S^−1. Work on B9 yielded a kcat of 0.0507 ± 0.0006 S^−1. Molecule B10 has a kcat of 0.0315 ± 0.0003 S^−1. In the case of B11, the kcat is reported as 0.0453 ± 0.0009 S^−1. For B12, the kcat was 0.0476 ± 0.0012 S^−1. Work on B13 yielded a kcat of 0.1398 ± 0.0015 S^−1. B14 gave a kcat of 0.0698 ± 0.0012 S^−1. Work on B15 yielded a kcat of 0.0798 ± 0.0012 S^−1. Work on B16 yielded a kcat of 0.0627 ± 0.0021 S^−1.

Same assay, conditions: for penicillin G; 20 μg purified DAOCS, 1 mM α-ketoglutarate, 30° C.; triplicate, Hanes-Woolf Plot
B1 gave a Km of 550 ± 120 µM. For B2, the Km was 250 ± 80 µM. In the case of B3, the Km is reported as 680 ± 340 µM. For B4, the Km was 760 ± 170 µM. With B5 the Km was 1360 ± 90 µM. For B6, the Km was 1020 ± 20 µM. Work on B7 yielded a Km of 2450 ± 40 µM. B8 gave a Km of 1680 ± 200 µM. For B9, the Km was 1960 ± 90 µM. In the case of B10, the Km is reported as 750 ± 20 µM. For B11, the Km was 1770 ± 150 µM. Molecule B12 has a Km of 1760 ± 50 µM. With B13 the Km was 190 ± 2 µM. Work on B14 yielded a Km of 1390 ± 90 µM. B15 gave a Km of 950 ± 50 µM. B16 gave a Km of 740 ± 160 µM.

Test: Relative activity of purified combined mutants compared to wild type DAOCS
Format: biochemical
Settings: 1 mM penicillin G; activity of wild-type DAOCS as 100%
Method: as §3, §2
The relative activities of the mutants are determined according to Chin H. S. et al supra with the activity of wild-type DAOCS as 100% and shown in Table 2. The assay was performed with 1 mM penicillin G, and the other conditions were the same as standard assay.
With B2 the “Relative Activities” value was 500%. In the case of B17, the “Relative Activities” value is reported as 430%. For B18, the “Relative Activities” value was 1290%. In the case of B19, the “Relative Activities” value is reported as 300%. In the case of B20, the “Relative Activities” value is reported as 610%. For B21, the “Relative Activities” value was 470%.
